# What was measured:
# Details in all cases: protein: recombinant; tags: MBP (pMAL-cRI); only one strand given
# [1] = molecular target: TCF7L2 HMG box Y337S (MBP fusion) (UniProt Q924A0 327-395, Y337S); experiment: EMSA; 50 mM NaCl, 20 mM Tris-HCl (pH not stated), 1 mM DTT, 1 mM MgCl2, 5% glycerol, 1 h at 25 C; 6% native PAGE
# [2] = molecular target: TCF7L2 HMG box Y337E (MBP fusion) (UniProt Q924A0 327-395, Y337E); experiment: as above
# [3] = molecular target: TCF7L2 HMG box Y337H (MBP fusion) (UniProt Q924A0 327-395, Y337H); experiment: as above
# [4] = molecular target: TCF7L2 HMG box WT (MBP fusion) (UniProt Q924A0 327-395); experiment: EMSA; dose-dependent; 50 mM NaCl, 20 mM Tris-HCl (pH not stated), 1 mM DTT, 1 mM MgCl2, 5% glycerol, 1 h at 25 C; 6% native PAGE
# [5] = molecular target: TCF7L2 HMG box Y337F (MBP fusion) (UniProt Q924A0 327-395, Y337F); experiment: EMSA; binding largely retained; 50 mM NaCl, 20 mM Tris-HCl (pH not stated), 1 mM DTT, 1 mM MgCl2, 5% glycerol, 1 h at 25 C; 6% native PAGE
# Sequence of TCF7L2 HMG box Y337F (MBP fusion) (Q924A0 327-395 Y337F): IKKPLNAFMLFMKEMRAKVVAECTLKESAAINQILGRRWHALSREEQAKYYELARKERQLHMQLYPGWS
# Sequence of TCF7L2 HMG box Y337E (MBP fusion) (Q924A0 327-395 Y337E): as the sequence (Q924A0 327-395 Y337F) above, with F11E counted along it
# Sequence of TCF7L2 HMG box WT (MBP fusion) (Q924A0 327-395): as the sequence (Q924A0 327-395 Y337F) above, with F11Y counted along it
# Sequence of TCF7L2 HMG box Y337H (MBP fusion) (Q924A0 327-395 Y337H): as the sequence (Q924A0 327-395 Y337F) above, with F11H counted along it
# Sequence of TCF7L2 HMG box Y337S (MBP fusion) (Q924A0 327-395 Y337S): as the sequence (Q924A0 327-395 Y337F) above, with F11S counted along it
binder,measurement,setting,value
HMG-binding sequence probe (dsDNA) DNA 1: TAGACGTAGGGCACCCTTTGAAGCTCTCCCTCGA DNA 2: TCGAGGGAGAGCTTCAAAGGGTGCCCTACGTCTA,binding result,[1],no binding
same,binding result,[2],no binding
same,binding result,[3],no binding
same,binding result,[4],binds
same,binding result,[5],binds

# Reference: publication PMC10208975, “TCF7L2 acts as a molecular switch in midbrain to control mammal vocalization through its DNA binding domain but not transcription activation domain”
